Assay results reported in doi:10.1101/2022.01.19.477021, “The Intrinsically Disordered Region of Coronins Fine-tunes Oligomerization and Actin Polymerization” (bioRxiv, 2022).
Where “and” joins values, the source holds several entries; their conditions need not be identical. Identical values can stand only once.

B1: Crn1-ΔN (IDR and CC domains, aa 401-651) (domain or fragment, S. cerevisiae, UniProt Q06440 401-651, looked up)
chain: RSIYDGSAPSFHEAKRPQQPTTQETALEEKKEQPKVEKPISESEKEVKQEAPKSPSPLKSASSSSTINHVLKEDNSINKLLKKSSDIDQVNNAEDPSRDTSGWEEADDEPAPIKIETPVTPTETKKDRTPKVEPSKELKPEPVSIATDRKQEQSLPQEEKSSEKTKSPEQEKSATPPSSITAAKTAITASSKEEPSAARTSPKSLGLKKSVEKLSTLVLQLEDVVDKLTKANLDKDERLLKLEQKIGELSK
notes: Crn1 (coronin), S. cerevisiae, residues 401-651 (IDR and CC domain); source: E. coli Rosetta (DE3), purified (HisTrap, SEC when necessary)
B2: Crn1ΔIDR-S (Crn1 with a short 40-aa middle fragment of the IDR) (natural protein, S. cerevisiae, UniProt Q06440 1-651, looked up)
chain: MSGKFVRASKYRHVFGQAAKKELQYEKLKVTNNAWDSNLLKTNGKFIAVNWNASGGGAFAVIPIEEVGKAPDQVPLFRGHTAQVLDTDFDPFNDHRIASGSDDSKIGIWDIPENYKFHDHVDEDGEPIDIKPVKFLTGHARKVGHVLYHPVAENVLASSSGDYTVKLWNVETGKDMITLKHPDMVTSMSFSYDGNYLATVARDKKLRVWNIREEKIVSEGPAHTGAKNQRVVWLGNSDRLATTGFSKLSDRQIGIWDAFNIEKGDLGGFYTVDQSSGILMPFYDEGNKILYLVGKGDGNIRYYEFQNDELFELSEFQSTEAQRGFAVAPKRMVNVKENEVLKGFKTVVDQRIEPVSFFVPRRSEEFQEDIYPDAPSNKPALTAEEWFSGKSVEGPILVSMSSDIDQVNNAEDPSRDTSGWEEADDEPAPIKIETPVTPTEPKSLGLKKSVEKLSTLVLQLEDVVDKLTKANLDKDERLLKLEQKIGELSK
notes: Crn1 (coronin), S. cerevisiae, residues 1-651 with 401-483 and 524-601 excluded by a two-step truncation of the full-length plasmid; short IDR 484-523 kept; By the stated limits residues 602-604 of the IDR stay in the construct; source: E. coli Rosetta (DE3), purified (HisTrap, SEC when necessary)
B3: Crn1-CC (C-terminal coiled-coil domain, aa 605-651) (domain or fragment, S. cerevisiae, UniProt Q06440 605-651, looked up)
chain: LGLKKSVEKLSTLVLQLEDVVDKLTKANLDKDERLLKLEQKIGELSK
notes: Crn1 (coronin), S. cerevisiae, residues 605-651, coiled-coil domain; made by truncating 401-604 from the Crn1-ΔN (401-651) plasmid; The introduction gives the CC domain as aa 600-651; also called CC domain; source: E. coli Rosetta (DE3), purified (HisTrap, SEC when necessary)
B4: Crn1 full-length (Crn1-FL), recombinant from E. coli (natural protein, S. cerevisiae, UniProt Q06440 1-651, looked up)
chain: MSGKFVRASKYRHVFGQAAKKELQYEKLKVTNNAWDSNLLKTNGKFIAVNWNASGGGAFAVIPIEEVGKAPDQVPLFRGHTAQVLDTDFDPFNDHRIASGSDDSKIGIWDIPENYKFHDHVDEDGEPIDIKPVKFLTGHARKVGHVLYHPVAENVLASSSGDYTVKLWNVETGKDMITLKHPDMVTSMSFSYDGNYLATVARDKKLRVWNIREEKIVSEGPAHTGAKNQRVVWLGNSDRLATTGFSKLSDRQIGIWDAFNIEKGDLGGFYTVDQSSGILMPFYDEGNKILYLVGKGDGNIRYYEFQNDELFELSEFQSTEAQRGFAVAPKRMVNVKENEVLKGFKTVVDQRIEPVSFFVPRRSEEFQEDIYPDAPSNKPALTAEEWFSGKSVEGPILVSMRSIYDGSAPSFHEAKRPQQPTTQETALEEKKEQPKVEKPISESEKEVKQEAPKSPSPLKSASSSSTINHVLKEDNSINKLLKKSSDIDQVNNAEDPSRDTSGWEEADDEPAPIKIETPVTPTETKKDRTPKVEPSKELKPEPVSIATDRKQEQSLPQEEKSSEKTKSPEQEKSATPPSSITAAKTAITASSKEEPSAARTSPKSLGLKKSVEKLSTLVLQLEDVVDKLTKANLDKDERLLKLEQKIGELSK
notes: Crn1 (coronin), S. cerevisiae, residues 1-651; Vector pET-21d(+)(pSY5) adds an 8x histidine tag and an HRV 3C protease site at the N-terminus; cleavage is not described; By AUC-SV a mix of monomers and tetramers; also called WT Crn1; source: E. coli Rosetta (DE3), purified (HisTrap, SEC when necessary)
B5: yeast purified full-length Crn1 (yCrn1-FL) (natural protein, S. cerevisiae, UniProt Q06440 1-651, looked up)
chain: B4 chain
notes: Crn1 (coronin), S. cerevisiae, full length; The text says C-terminal 6xHis-tagged, but names the vector as pGAL-ORF-3×StreptagII-9×His; source: S. cerevisiae (strain YMY2043, galactose-induced overexpression), purified (HisTrap)
B6: Crn1-ΔIDR (Crn1 lacking the IDR, aa 401-604) (natural protein, S. cerevisiae, UniProt Q06440 1-651, looked up)
chain: MSGKFVRASKYRHVFGQAAKKELQYEKLKVTNNAWDSNLLKTNGKFIAVNWNASGGGAFAVIPIEEVGKAPDQVPLFRGHTAQVLDTDFDPFNDHRIASGSDDSKIGIWDIPENYKFHDHVDEDGEPIDIKPVKFLTGHARKVGHVLYHPVAENVLASSSGDYTVKLWNVETGKDMITLKHPDMVTSMSFSYDGNYLATVARDKKLRVWNIREEKIVSEGPAHTGAKNQRVVWLGNSDRLATTGFSKLSDRQIGIWDAFNIEKGDLGGFYTVDQSSGILMPFYDEGNKILYLVGKGDGNIRYYEFQNDELFELSEFQSTEAQRGFAVAPKRMVNVKENEVLKGFKTVVDQRIEPVSFFVPRRSEEFQEDIYPDAPSNKPALTAEEWFSGKSVEGPILVSMLGLKKSVEKLSTLVLQLEDVVDKLTKANLDKDERLLKLEQKIGELSK
notes: Crn1 (coronin), S. cerevisiae, residues 1-651 with the IDR (401-604) deleted; made from the pSY5-Crn1-FL plasmid; source: E. coli Rosetta (DE3), purified (HisTrap, SEC when necessary)

Tests used:
[1] = target: the molecule itself; test: AUC; sedimentation velocity; 50 mM Tris pH 8.0, 150 mM NaCl, 20 °C, 30,000 or 45,000 rpm; c(s) and c(s,ff0) models in SEDFIT; samples at 3-9.2 µM
[2] = target: rabbit skeletal muscle actin (RMA), filamentous (F-actin) (rabbit, UniProt P68135 1-377); test: co-sedimentation; high-speed actin cosedimentation: a range of concentrations of Crn1 variant with a fixed concentration of pre-polymerized actin filaments in F-buffer, room temperature 30 min, 100,000 x g 20 min at 25°C; bound against free coronin fitted with the Hill equation; details: both partners purified
[3] = target: the molecule itself; test: SEC + other: negative-stain transmission electron microscopy; Superdex 200 increase 10/30 column in a pH 8 Tris-buffer with 150 mM NaCl; TEM of 1 µM protein in F-buffer

Binder | stoichiometry N [1] | Kd [2] | binding result [3]
B1 | 4 |  | 
B2 | 3 and 6 |  | 
B3 | ~15 |  | 
B4 | 4 | 240 nM | 
B5 | 4 and 6 |  | 
B6 |  |  | binds
